Test results taken from publication PMC9134599.

How the values were obtained:
[1] = target: human amylin 1 receptor (CTR + RAMP1) (human) (UniProt O60894)
[2] = target: human calcitonin receptor, transcript variant 2 (CT(a) subtype), expressed alone (human)

Chain of UniProt O60894 (O60894 whole entry, looked up): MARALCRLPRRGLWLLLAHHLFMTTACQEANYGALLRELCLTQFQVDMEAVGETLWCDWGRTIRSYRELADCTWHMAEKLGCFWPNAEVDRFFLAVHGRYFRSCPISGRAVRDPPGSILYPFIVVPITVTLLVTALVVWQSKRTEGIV
Chain of human amylin (P10997 34-70): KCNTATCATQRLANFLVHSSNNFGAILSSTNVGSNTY

## human amylin (from UniProt P10997 34-70) (peptide)
[1]
  pEC50 of the amylin-induced current (two-electrode voltage clamp, -70 mV), oocytes expressing AMY1-R, amylin 0.01 to 10 μM: 6.33 -log M

## human α-CGRP (calcitonin gene-related peptide) (from UniProt P06881 83-119)
[2]
  inward current (two-electrode voltage clamp, -70 mV), oocytes expressing CTR, CGRP 0.01 to 10 μM; maximum at 10 μM: -1.07 μA
  pEC50 of the CGRP-induced inward current (two-electrode voltage clamp, holding potential -70 mV), oocytes expressing CTR: 5.42 -log M
